Experimental data reported in patent US20260274955A1 (JANUX THERAPEUTICS, published 2026).

Key:
[1] = target: T1, Anti-CD28 Fab (SEQ ID NOs: 202, 203); test: phage ELISA, Fab on plate;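 also: crude clonal phage supernatants added to wells pretreated with blocking buffer with or without CD28 antigen, then bound phage read out via HRP-linked anti-M13 antibody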
T1 construct: biotinylated and captured on neutravidin coated plates in the phage ELISA

[2] = target: T1, Anti-CD28 Fab (SEQ ID NOs: 202, 203); test: phage ELISA, Fab on plate, CD28 antigen as competitor
Experimental: After panning, phage infected bacteria were plated out and colonies picked into 96 well blocks. Clonal phage was then amplified and separated from bacterial cells via centrifugation.
Clonal phage were harvested as crude supernatants and screened via standard ELISAs. […] Prior to the addition of clonal phage, wells were incubated with blocking buffer and CD28 antigen or blocking buffer alone. Without washing or aspirating, clonal phage supernatants were then added to the wells and incubated for a short time. Wells were then washed followed by detection of bound phage using a horse radish conjugated anti-M13 antibody. Clonal phage of interest were then sent for sequence analysis.

T1 sequence (VH, as listed by the source, chain 1 of 2): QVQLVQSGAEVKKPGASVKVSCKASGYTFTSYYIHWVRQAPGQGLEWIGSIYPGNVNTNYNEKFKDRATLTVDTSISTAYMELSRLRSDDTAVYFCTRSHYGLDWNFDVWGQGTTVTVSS
T1 sequence (VL, as listed by the source, chain 2 of 2): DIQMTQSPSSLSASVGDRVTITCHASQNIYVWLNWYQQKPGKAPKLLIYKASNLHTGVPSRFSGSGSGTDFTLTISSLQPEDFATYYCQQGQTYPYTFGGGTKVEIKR

| Binder | Anti-CD28 Fab (SEQ ID NOs: 202, 203) signal [1] | Anti-CD28 Fab signal in the presence of CD28 [2] |
| --- | --- | --- |
| YCEGHLAEYMNKCL [Phage-690] | 1.24 | 0.07 |
| YCHGHLPQYMSKCM [Phage-700] | 1.21 | 0.06 |
| YCDGHSEQYMAKCL [Phage-687] | 1.24 | 0.06 |
| YCVGHYPEYMEKCL [Phage-697] | 1.22 | 0.07 |
| YCDGHSQEYMSKCL [Phage-699] | 1.21 | 0.06 |
| YCEGHLQEHMAKCL [Phage-684] | 1.25 | 0.05 |
| YCDGHRPEYMSKCL [Phage-706] | 1.18 | 0.07 |
| YCEGHLKEYMQKCL [Phage-714] | 1.17 | 0.07 |
| YCAGLFEEYMSKCL [Phage-685] | 1.25 | 0.06 |
| YCEGHHRIYMQKCL [Phage-681] | 1.26 | 0.07 |
| YCAGHSSEYIGKCL [Phage-710] | 1.17 | 0.06 |
| YCDGHSWEYLGKCL [Phage-703] | 1.2 | 0.05 |
| YCDGHSSVYMLKCL [Phage-680] | 1.26 | 0.06 |
| YCEGHAGVYMAKCL [Phage-708] | 1.17 | 0.05 |
| YCEGHMPEYLAKCL [Phage-707] | 1.18 | 0.07 |
| YCDGHVEEYMTKCL [Phage-691] | 1.24 | 0.07 |
| YCDGHAEEYRMKCL [Phage-678] | 1.27 | 0.08 |
| YCDGHSPAYLQKCL [Phage-673] | 1.28 | 0.06 |
| YCDGHLEVYMDKCL [Phage-672] | 1.28 | 0.07 |

| Binder | Anti-CD28 Fab (SEQ ID NOs: 202, 203) signal [1] | Anti-CD28 Fab signal in the presence of CD28 [2] |
| --- | --- | --- |
| YCDGHEARYMQKCL [Phage-698] | 1.21 | 0.07 |
| YCEGHSTEYIQKCL [Phage-694] | 1.23 | 0.09 |
| YCEGHRAEYMSKCL [Phage-716] | 1.16 | 0.09 |
| YCEGHSSQWMWKCL [Phage-674] | 1.27 | 0.09 |
| YCAGHAPEYISKCL [Phage-702] | 1.21 | 0.07 |
| YCEGHIGIYMSKCL [Phage-693] | 1.23 | 0.07 |
| YCEGHTQEYMQKCL [Phage-688] | 1.24 | 0.07 |
| YCEGHFPLYMNKCL [Phage-675] | 1.27 | 0.08 |
| YCEGHMSIYMQKCL [Phage-683] | 1.25 | 0.07 |
| YCEGHQPAYMEKCL [Phage-677] | 1.27 | 0.06 |
| YCDGHSMMYMQKCL [Phage-695] | 1.23 | 0.06 |
| YCEGHSTEYMAKCL [Phage-676] | 1.27 | 0.06 |
| YCEGHSEEYMAKCL [Phage-682] | 1.26 | 0.07 |
| YCEGHSAEHMPKCL [Phage-696] | 1.23 | 0.09 |
| YCEGHAEQYMEKCL [Phage-713] | 1.17 | 0.08 |
| YCDGHLPVYMTKCL [Phage-679] | 1.27 | 0.07 |
| YCAGHLDIYLAKCL [Phage-701] | 1.21 | 0.07 |
| YCEGHAAEYLWKCL [Phage-705] | 1.18 | 0.09 |
| YCDGHLEQYMLKCL [Phage-692] | 1.24 | 0.09 |
